In PMC7897678 (Frontiers in Immunology, 2020):

Target: T1, C1q isolated from mouse serum (mouse, UniProt P98086 23-245; P14106 26-253; Q02105 30-246)
T1 construct: complement C1q subcomponent chain A (C1qA), mouse; complement C1q subcomponent chain B (C1qB), mouse; complement C1q subcomponent chain C (C1qC), mouse; also called purified C1q; copies: 6 + 6 + 6
Assay: ELISA; NP1, NP2 or PTX3 coated (10 µg/ml in PBS, overnight 4 °C), blocked with 4% BSA in PBS-T; C1q 5.6–45 µg/ml in PBS, 1 h at RT; bound C1q detected with anti-C1qb antibody
Conditions: both partners purified

T1 sequence (P98086 23-245, chain 1 of 3): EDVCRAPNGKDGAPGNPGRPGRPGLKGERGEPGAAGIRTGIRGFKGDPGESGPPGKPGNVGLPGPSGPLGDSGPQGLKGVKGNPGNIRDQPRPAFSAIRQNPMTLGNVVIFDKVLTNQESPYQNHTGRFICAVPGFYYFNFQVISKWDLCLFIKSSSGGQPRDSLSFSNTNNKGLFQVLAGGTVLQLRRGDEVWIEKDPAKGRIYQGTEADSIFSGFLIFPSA
T1 sequence (P14106 26-253, chain 2 of 3): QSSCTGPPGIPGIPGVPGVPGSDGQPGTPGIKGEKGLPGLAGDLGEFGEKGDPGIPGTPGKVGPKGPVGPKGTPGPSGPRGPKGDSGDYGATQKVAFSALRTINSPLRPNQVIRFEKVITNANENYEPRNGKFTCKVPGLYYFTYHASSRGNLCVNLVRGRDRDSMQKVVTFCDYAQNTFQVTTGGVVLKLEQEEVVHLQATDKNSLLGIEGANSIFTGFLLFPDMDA
T1 sequence (Q02105 30-246, chain 3 of 3): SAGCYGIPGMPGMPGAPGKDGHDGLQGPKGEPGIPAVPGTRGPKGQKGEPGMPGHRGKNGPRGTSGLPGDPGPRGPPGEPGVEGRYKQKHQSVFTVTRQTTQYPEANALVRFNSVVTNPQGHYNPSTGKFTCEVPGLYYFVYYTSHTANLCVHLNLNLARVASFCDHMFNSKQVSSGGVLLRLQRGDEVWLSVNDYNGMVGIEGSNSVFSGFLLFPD

Binder | binding result
Recombinant human His-tagged neuronal pentraxin 2 (natural protein, UniProt P47972 16-431, looked up, neuronal pentraxin 2 (NP2), human, recombinant; see the vendor's data sheet; also called NP2; NPs (with NP1); source: bought: R&D Systems (7816-NP-050)) GAQDSPAPGSRFVCTALPPEAVHAGCPLPAMPMQGGAQSPEEELRAAVLQLRETVVQQKETLGAQREAIRELTGKLARCEGLAGGKARGAGATGKDTMGDLPRDPGHVVEQLSRSLQTLKDRLESLEHQLRANVSNAGLPGDFREVLQQRLGELERQLLRKVAELEDEKSLLHNETSAHRQKTESTLNALLQRVTELERGNSAFKSPDAFKVSLPLRTNYLYGKIKKTLPELYAFTICLWLRSSASPGIGTPFSYAVPGQANEIVLIEWGNNPIELLINDKVAQLPLFVSDGKWHHICVTWTTRDGMWEAFQDGEKLGTGENLAPWHPIKPGGVLILGQEQDTVGGRFDATQAFVGELSQFNIWDRVLRAQEIVNIANCSTNMPGNIIPWVDNNVDVFGGASKWPVETCEERLLDL | binds
Recombinant human His-tagged neuronal pentraxin 1 (natural protein, UniProt Q15818 23-432, looked up, neuronal pentraxin 1 (NP1), human, recombinant; see the vendor's data sheet; also called NP1; NPs (with NP2); source: bought: R&D Systems (7707-NP-050)) QDFGPTRFICTSVPVDADMCAASVAAGGAEELRSSVLQLRETVLQQKETILSQKETIRELTAKLGRCESQSTLDPGAGEARAGGGRKQPGSGKNTMGDLSRTPAAETLSQLGQTLQSLKTRLENLEQYSRLNSSSQTNSLKDLLQSKIDELERQVLSRVNTLEEGKGGPRNDTEERVKIETALTSLHQRISELEKGQKDNRPGDKFQLTFPLRTNYMYAKVKKSLPEMYAFTVCMWLKSSATPGVGTPFSYAVPGQANELVLIEWGNNPMEILINDKVAKLPFVINDGKWHHICVTWTTRDGVWEAYQDGTQGGSGENLAPYHPIKPQGVLVLGQEQDTLGGGFDATQAFVGELAHFNIWDRKLTPGEVYNLATCSTKALSGNVIAWAESHIEIYGGATKWTFEACRQIN | binds
